Results on 2 molecules are retold here after article PMC3518268 (Science (New York, N.Y.), 2009).

First the molecules themselves.
B1: LKB1 kinase domain (residues 43-347), catalytically inactive mutant Asp194Ala (domain or fragment, human, UniProt Q15831 43-347, looked up)
chain: AKLIGKYLMGDLLGEGSYGKVKEVLDSETLCRRAVKILKKKKLRRIPNGEANVKKEIQLLRRLRHKNVIQLVDVLYNEEKQKMYMVMEYCVCGMQEMLDSVPEKRFPVCQAHGYFCQLIDGLEYLHSQGIVHKDIKPGNLLLTTGGTLKISALGVAEALHPFAADDTCRTSQGSPAFQPPEIANGLDTFSGFKVDIWSAGVTLYNITTGLYPFEGDNIYKLFENIGKGSYAIPGDCGPPLSDLLKGMLEYEPAKRFSIRQIRQHSWFRKKHPPAEAPVPIPPSPDTKDRWRSMTVVPYLEDLHGA
B2: full length MO25α (natural protein, human, UniProt Q9Y376 1-341, looked up)
chain: MPFPFGKSHKSPADIVKNLKESMAVLEKQDISDKKAEKATEEVSKNLVAMKEILYGTNEKEPQTEAVAQLAQELYNSGLLSTLVADLQLIDFEGKKDVAQIFNNILRRQIGTRTPTVEYICTQQNILFMLLKGYESPEIALNCGIMLRECIRHEPLAKIILWSEQFYDFFRYVEMSTFDIASDAFATFKDLLTRHKLLSAEFLEQHYDRFFSEYEKLLHSENYVTKRQSLKLLGELLLDRHNFTIMTKYISKPENLKLMMNLLRDKSRNIQFEAFHVFKVFVANPNKTQPILDILLKNQAKLIEFLSKFQNDRTEDEQFNDEKTYLVKQIRDLKRPAQQEA

The assay “full length MO25α” deals with B2. Kind of assay: crystal structure.
Assay [1] deals with T1, pseudokinase domain of STRADα (residues 59-431) (human, UniProt Q7RTN6 59-431).
T1 sequence (looked up): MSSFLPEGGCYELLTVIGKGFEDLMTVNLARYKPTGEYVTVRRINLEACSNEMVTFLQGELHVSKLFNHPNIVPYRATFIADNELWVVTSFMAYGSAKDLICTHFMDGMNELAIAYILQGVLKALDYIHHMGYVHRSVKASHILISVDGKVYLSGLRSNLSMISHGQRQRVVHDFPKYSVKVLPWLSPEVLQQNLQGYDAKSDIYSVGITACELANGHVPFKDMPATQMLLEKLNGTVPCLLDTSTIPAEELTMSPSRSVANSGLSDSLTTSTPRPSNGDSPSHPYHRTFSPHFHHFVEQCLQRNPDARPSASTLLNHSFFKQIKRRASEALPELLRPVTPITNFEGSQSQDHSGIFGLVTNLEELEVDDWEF
Kind of assay: crystal structure.

In the case of B1, the binding result (in the assay with full length MO25α; in assay [1]) was “binds” throughout. As for B2, the binding result in assay [1] was “binds”.
